Data published in US20220054630A1.

Experiments:
sE2 wild-type = sE2 wild-type (UniProt P27958); test: BLI
Wild-type = Wild-type (UniProt P27958); test: BLI

Row | Substance | Kd (sE2 wild-type) [nM] | Kd (Wild-type) [nM]
1 | HC84.1 | 30 | –
2 | CBH-4G | 15 | 15
3 | HEPC74 | 5.1 | –
4 | HCV1 | 42 | –
5 | CBH-4D | 8.4 | –
6 | HC84.26.WH.5DL | 4.3 | 4.3
7 | HC33.1 | 9.5 | –
